# Data as given in paper doi:10.1101/2024.05.31.596772, “CAMSAP3 Forms Dimers via its α-helix Domain that Directly Stabilize Non-centrosomal Microtubule Minus Ends” (bioRxiv, 2024).
# B1: GFP-CAMSAP3 944F (domain or fragment, UniProt Q80VC9 944-1252, looked up)
# chain: AFTTPVVASAAPVATLAPTTRAMAPAEEEVGPRRGDFTRLEYERRAQLKLMDDLDKVLRPRASGTGGPGRGGRRATRPRSGCCDDSALARSPARGLLGSRLSKVYSQSTLSLSTVANEAPNNLGVKRPTSRAPSPSGLMSPSRLPGSRERDWENGSNASSPASVPEYTGPRLYKEPSAKSNKFIIHNALSHCCLAGKVNEPQKNRILEEIEKSKANHFLILFRDSSCQFRALYTLSGETEELSRLAGYGPRTVTPAMVEGIYKYNSDRKRFTQIPAKTMSMSVDAFTIQGHLWQSKKPTTPKKGGGTPK
# notes: source: Sf9 cells, purified
# B2: GFP-CAMSAP3 (natural protein, UniProt Q80VC9 1-1252, looked up)
# chain: MVEAAPAGSGPLRRTFLVPEIKSLDQYDFSRAKAAASLAWVLRAAFGGAEHVPPELWEPFYTDQYAQEHVKPPVTRLLLSAELYCRAWRQALPQLEPSPSPSALLALLARRGTVPSLPEHPVREADLKHQPILMGAHLAVIDALMVAFSFEWTKTLPGPLALSSLEHKLLFWVDTTVRRLQEKTEQEAAQRASPAAPLDGASPAQPSIRYRKDRAIARRAPCFPNVTTLQDLASGAALAATIHCYCPQLLRLEEVCLKDPMSVADSLYNLQLVQDFCASHLPRGCPLSLEDLLYVPPPLKVNLVVLLAEMYMCFEVLKPDFVQAKDLPDGHAVSPRNTETVPSQNNSGSSSPVFNFRHPLLSPGGPQSPLRGSTGSLKSSPSMSHMEALGKAWNRQLSRPLSQAVSFSTPFGLDSDVDVVMGDPVLLRSVSSDSLGPPRPVSTSSRNSAQPAPESGDLPTIEEALQIIHSAEPRLLPDGAADGSFYLHSPEGLSKPPLSPYPPEGASKPLSDRLNKAPIYISHPENPSKSSPCSTGEILKPPPPSEGSPKAVASSPAANNSEVKMTSFAERKKQLVKAEAESGLGSPTSTPVAPEALSSEMSELGARLEEKRRAIEAQKRRIEAIFAKHRQRLGKSAFLQVQPREAAGEAEEEAELGSVPGGERPAGEGQGEPSLRHKSVTFSPDLGPVPPEGLGDYNRAVSKLSAALSSLQRDMQRLTDQQQRLLAPPEAPGPAPPPAAWVIPGPATGPKAASPSPARRAPAARRSPGPGPSPTPRSPKHARPAELKLAPLTRVLTPPHDVDSLPHLRKFSPSQVPVQTRSSILLSEGTPPEEPTTKPALIEIPLASLGEPAADEEGDGSPPGAEDSLEEEASSEGEPRSGLGFFYKDEDKPEDEMAQKRASLLERQQRRVEEARRRKQWQEAEKEQKREEAARLAQEAPGLAFTTPVVASAAPVATLAPTTRAMAPAEEEVGPRRGDFTRLEYERRAQLKLMDDLDKVLRPRASGTGGPGRGGRRATRPRSGCCDDSALARSPARGLLGSRLSKVYSQSTLSLSTVANEAPNNLGVKRPTSRAPSPSGLMSPSRLPGSRERDWENGSNASSPASVPEYTGPRLYKEPSAKSNKFIIHNALSHCCLAGKVNEPQKNRILEEIEKSKANHFLILFRDSSCQFRALYTLSGETEELSRLAGYGPRTVTPAMVEGIYKYNSDRKRFTQIPAKTMSMSVDAFTIQGHLWQSKKPTTPKKGGGTPK
# notes: CAMSAP3 (Nezha), full length; also called Nezha; CAMSAP3 full-length; source: Sf9 cells, purified
# Molecular target: the molecule itself
# Experiment: SEC-MALS; static light detection of the purified GFP-tagged protein; dimer from the mass of the primary peak
row,Protein,stoichiometry N
1,B1,2
2,B2,2
